Results from patent US20200072831A1.

Key:
[1] = biological target: DRB5*01:01 HLA Class II antigen expressed in a K cell line host (K562), lacking a CLIP peptide in the peptide binding groove (human); test: Luminex bead assay, Streptavidin-PE detection of biotinylated CLIP; no-peptide control beads
[2] = biological target: DRB5*01:01 HLA Class II antigen (K cell line host) loaded in vitro with biotinylated CLIP peptide (human); test: Luminex bead assay, Streptavidin-PE detection of biotinylated CLIP loaded on the antigen
[3] = biological target: DRB1*03:01 HLA Class II antigen loaded in vitro with biotinylated CLIP peptide (human); test: as above
Sequence of DRB1*03:01 HLA Class II antigen loaded in vitro with biotinylated CLIP peptide (human) (P04233 97-121 limits assumed, chain 3 of 3, other chains not shown): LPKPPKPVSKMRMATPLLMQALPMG

- MFI [1]: 840 MFI
- MFI [2]: 4600 MFI
- MFI [3]: 2810 MFI
Substance: Anti-biotinylated CLIP (Streptavidin-PE, to detect the presence of the biotinylated CLIP) (from UniProt P22629 37-163)
